According to patent publication US4010251A, “Scanning agent composition and use in imaging liver and for biliary function” (priority 1974, dated 1977):

Columns and labels:
liver = settings: human, in vivo; cited from earlier work
rat and rabbit liver = assay: In vivo animal hepatic imaging after intravenous injection of labelled compounds
Experimental: Adult male Wistur rats weighing about 400g and male New Zealand rabbits weighing about 2.5kg. were used in the in vivo animal imaging studies. After intravenous injection of the labelled compounds (100-400uCi) as a bolus into experimental animals, hepatic imaging was performed on a PhoGamma III scintillation camera (Nuclear Chicago Corp., Des Plaines, Ill.) using a 140keV parallel collimator. Images were recorded on Polaroid type 55 film.

[1] = in vivo; cited from earlier work

Molecule: O=C(O)c1c(Cl)c(Cl)c(Cl)c(Cl)c1-c1c2cc(I)c(=O)c(I)c-2oc2c(I)c(O)c(I)cc12 [^131 I-rose bengal]
- 20:5 minutes ratio of blood ^131 I-rose bengal concentrations (liver): 0.39-0.51
- time by which biliary excretion has begun (liver): ≤ 20 min
- time for maximal concentration in the liver (liver): ~30 min

B1: Radiolabelled DTBG: Radiolabelled desialylated thyroxine-binding globulin; radiolabel not specified at that place (protein, UniProt P05543 21-415, looked up)
Thyroxine-binding globulin: ASPEGKVTACHSSQPNATLYKMSSINADFAFNLYRRFTVETPDKNIFFSPVSISAALVMLSFGACCSTQTEIVETLGFNLTDTPMVEIQHGFQHLICSLNFPKKELELQIGNALFIGKHLKPLAKFLNDVKTLYETEVFSTDFSNISAAKQEINSHVEMQTKGKVVGLIQDLKPNTIMVLVNYIHFKAQWANPFDPSKTEDSSSFLIDKTTTVQVPMMHQMEQYYHLVDMELNCTVLQMDYSKNALALFVLPKEGQMESVEAAMSSKTLKKWNRLLQKGWVDLFVPKFSISATYDLGATLLKMGIQHAYSENADFSGLTEDNGLKLSNAAHKAVLHIGEKGTEAAAVPEVELSDQPENTFLHPIIQIDRSFMLLILERSTRSILFLGKVVNPTEA
modifications: desialylated; radiolabelled
notes: radiolabel not specified at that place
- liver imaging after intravenous injection (rat and rabbit liver; scintillation camera): effective as a liver imaging agent

B2: DTBG: desialylated thyroxine-binding globulin from pooled human serum (protein, UniProt P05543 21-415, looked up)
Thyroxine-binding globulin: B1 Thyroxine-binding globulin
modifications: desialylated
- half-life in the circulation [1]: 4 to 5 min

B3: ^131 I-DTBG: ^131 I labelled desialylated thyroxine-binding globulin (protein, UniProt P05543 21-415, looked up)
Thyroxine-binding globulin: B1 Thyroxine-binding globulin
modifications: 131I label; desialylated
- clearance of the iodine label by the kidneys noted, time post-injection (rat and rabbit liver; in vivo): 20 or 30 minutes
- uptake and concentration in the liver (rat and rabbit liver; in vivo): rapidly taken up by the hepatocytes
